According to patent US11840574B2, “Anti-DR5 antibody and use thereof” (DONG-A ST CO., LTD., priority 2017, dated 2023):
Residue numbers refer to the chain shown, from its start.

B1: DA5: humanized or deimmunized variant of parental clone D0; CDRs SEQ ID NO 1, 2, 7 / 4, 10, 13 (antibody, V domains shown)
VH: EVQLVESGGGLVQPGGSLRLSCAASGFTFSSFNMLWVRQAPGKGLEWVAGIGKSDRYTGYGSAVKGRFTISRDDSKSTAYLQMNSLRAEDTAVYYCVRDAGSGCGSGGWTGACIDTWGQGTLVTVSS
VL: DIQMTQSPSSLSASVGDRVTITCSGGDSYAGSYYYGWYQQKPGKAPKTLIYNNNNRPSGVPSRFSGSTSGTDFTLTISSLQPEDFATYYCGSRDSSYVGIFGQGTKVEIK
B2: DA12: humanized or deimmunized variant of parental clone D0; CDRs SEQ ID NO 1, 2, 7 / 4, 11, 13 (antibody, V domains shown)
VH: B1 VH with D74T, S77N, V97S
VL: B1 VL with R56L, P57M, S58P, T68R
B3: DA18: humanized or deimmunized variant of parental clone D0; CDRs SEQ ID NO 1, 2, 7 / 4, 10, 15 (antibody, V domains shown)
VH: B1 VH with A79V
VL: B1 VL with T68R, S96D, Y97G, V98G, I100R
B4: DA17: humanized or deimmunized variant of parental clone D0; CDRs SEQ ID NO 1, 2, 7 / 4, 12, 13 (antibody, V domains shown)
VH: B1 VH with A79V
VL: B1 VL with R56K, P57A, S58K, T68R
B5: DA16: humanized or deimmunized variant of parental clone D0; CDRs SEQ ID NO 1, 2, 7 / 4, 10, 16 (antibody, V domains shown)
VH: B1 VH with D74T, S77N, V97S
VL: B1 VL with T68R, Y97G, V98A, I100G
B6: DA13: humanized or deimmunized variant of parental clone D0; CDRs SEQ ID NO 1, 2, 7 / 4, 10, 14 (antibody, V domains shown)
VH: B1 VH with D74T, S77N, V97S
VL: B1 VL with T68R, S96A, Y97G, V98M, I100A
B7: DA7: humanized or deimmunized variant of parental clone D0; CDRs SEQ ID NO 1, 2, 7 / 4, 10, 13 (antibody, V domains shown)
VH: B1 VH with A79V, V97S
VL: B1 VL
B8: DA15: humanized or deimmunized variant of parental clone D0; CDRs SEQ ID NO 1, 2, 7 / 4, 10, 15 (antibody, V domains shown)
VH: B1 VH with D74T, S77N, V97S
VL: B1 VL with T68R, S96D, Y97G, V98G, I100R
B9: DA9: humanized or deimmunized variant of parental clone D0; CDRs SEQ ID NO 1, 2, 7 / 4, 10, 13 (antibody, V domains shown)
VH: B1 VH with A79L
VL: B1 VL with T68R
B10: DA10: humanized or deimmunized variant of parental clone D0; CDRs SEQ ID NO 1, 2, 7 / 4, 10, 13 (antibody, V domains shown)
VH: B1 VH with D74T, S77N, V97S
VL: B1 VL with T68R
B11: DA6: humanized or deimmunized variant of parental clone D0; CDRs SEQ ID NO 1, 2, 7 / 4, 10, 13 (antibody, V domains shown)
VH: B1 VH with A79V, V97A
VL: B1 VL
B12: DA14: humanized or deimmunized variant of parental clone D0; CDRs SEQ ID NO 1, 2, 7 / 4, 12, 13 (antibody, V domains shown)
VH: B1 VH with D74T, S77N, V97S
VL: B1 VL with R56K, P57A, S58K, T68R
B13: DA8: humanized or deimmunized variant of parental clone D0; CDRs SEQ ID NO 1, 2, 7 / 4, 10, 13 (antibody, V domains shown)
VH: B1 VH with A79V
VL: B1 VL with T68G
B14: DA24: humanized or deimmunized variant of parental clone D0; CDRs SEQ ID NO 1, 2, 7 / 4, 10, 13 (antibody, V domains shown)
VH: AVTLDESGGGLQTPGGGLSLVCKGSGFTFSSFNMLWVRQAPGKGLEWVAGIGKSDRYTGYGSAVKGRATISRDDGQSTVRLQLNNLRAEDTGTYYCVKDAGSGCGSGGWTGACIDTWGHGTEVIVSS
VL: LTQPSSVSANLGGTVEITCSGGDSYAGSYYYGWYQQKAPGSAPVTVIYNNNNRPSNIPSRFSGSTSGSTATLTITGVQAEDEATYYCGSRDSSYVGIFGAGTTLTVL
B15: DA33: humanized or deimmunized variant of parental clone D0; CDRs SEQ ID NO 1, 2, 7 / 4, 10, 13 (antibody, V domains shown)
VH: B14 VH with V79A, G92A, T93V
VL: B14 VL with Y86F
B16: DA31: humanized or deimmunized variant of parental clone D0; CDRs SEQ ID NO 1, 2, 7 / 4, 10, 13 (antibody, V domains shown)
VH: B14 VH with V79A, L83M, N85S
VL: B14 VL with Y86F
B17: DA32: humanized or deimmunized variant of parental clone D0; CDRs SEQ ID NO 1, 2, 7 / 4, 10, 13 (antibody, V domains shown)
VH: B14 VH with G92A, T93V
VL: B14 VL with T84V, Y86F
B18: DA28: humanized or deimmunized variant of parental clone D0; CDRs SEQ ID NO 1, 2, 7 / 4, 10, 13 (antibody, V domains shown)
VH: B14 VH with V79A
VL: B14 VL with T84V, Y86F
B19: DA25: humanized or deimmunized variant of parental clone D0; CDRs SEQ ID NO 1, 2, 7 / 4, 10, 13 (antibody, V domains shown)
VH: B14 VH with R80Y, L83M, N85S
VL: B14 VL with T84V, Y86F
B20: DA27: humanized or deimmunized variant of parental clone D0; CDRs SEQ ID NO 1, 2, 7 / 4, 10, 13 (antibody, V domains shown)
VH: B14 VH
VL: B14 VL with Y86F
B21: DA26: humanized or deimmunized variant of parental clone D0; CDRs SEQ ID NO 1, 2, 7 / 4, 10, 13 (antibody, V domains shown)
VH: B14 VH with R80Y, L83M, N85S
VL: B14 VL
B22: DA34: humanized or deimmunized variant of parental clone D0; CDRs SEQ ID NO 1, 2, 7 / 4, 10, 13 (antibody, V domains shown)
VH: B14 VH with V79A, R80Y, L83M, N85S, G92A, T93V
VL: B14 VL
B23: DA30: humanized or deimmunized variant of parental clone D0; CDRs SEQ ID NO 1, 2, 7 / 4, 10, 13 (antibody, V domains shown)
VH: B14 VH with V79A, R80Y, L83M, N85S
VL: B14 VL

target: Human DR5 (Homo sapiens, UniProt O14763); assay: Binding affinity of antibody to human DR5 (BIAcore, CM5 chip); details: association rate, Human DR5, 1:1 Langmuir binding model
Description: In order to measure affinity, human DR5 was coupled to carboxylated dextran biosensor chips (CM5, GE) according to the manufacturer's instruction. Association and dissociation rates were assessed by injecting IgG proteins that were 2-fold serially diluted to 5 nM, 2.5 nM, 1.25 nM, 0.625 nM, 0.313 nM, and 0.156 nM.
Association and dissociation rates were depicted in association and dissociation sensorgrams and calculated using a simple 1:1 Langmuir binding model (BIAcore X100 Evaluation Software, ver. 2.0). The equilibrium dissociation constants (KD), which is the ratio of dissociation constant (Kd) to association constant (Ka), were confirmed to be in the sub-nanomolar range. Measurements of the binding of antibody D0 and DA1 to DA35 of the present disclosure to DR5 are given in Table 11 below (antibody names are given as the names of the clones from which the antibodies were derived). A representative sensorgram for D0 is depicted in FIG. 1.

For B1, which “Ka” value is on record?
The value was 1.2e+06 M⁻¹ s⁻¹.

How did the “Ka(1/Ms)” value turn out when B2 was run?
Its value is 2.37 × 10^06 1/Ms.

How did the “Ka(1/Ms)” value turn out when B3 was run?
The value was 1.33 × 10^06 1/Ms.

B4 was tested. Which “Ka(1/Ms)” value did it give?
Its value is 2.54 × 10^06 1/Ms.

Which “Ka(1/Ms)” value does the source give for B5 here?
The value was 2.11 × 10^06 1/Ms.

For B6, which “Ka(1/Ms)” value is on record?
Its value is 2.62 × 10^06 1/Ms.

For B7, which “Ka” value is on record?
Its value is 1.4e+06 M⁻¹ s⁻¹.

How did the “Ka(1/Ms)” value turn out when B8 was run?
Its value is 2.56 × 10^06 1/Ms.

For B9, which “Ka” value is on record?
The value was 5.6e+06 M⁻¹ s⁻¹.

For B10, which “Ka” value is on record?
The value was 2.3e+06 M⁻¹ s⁻¹.

Which “Ka” value does the source give for B11 here?
The value was 7.8e+06 M⁻¹ s⁻¹.

Which “Ka(1/Ms)” value does the source give for B12 here?
The value was 4.27 × 10^06 1/Ms.

B13 was tested. Which “Ka” value did it give?
The value was 1.6e+06 M⁻¹ s⁻¹.

B14 was tested. Which “Ka(1/Ms)” value did it give?
The value was 1.20 × 10^06 1/Ms.

With B15 as the molecule, how does the “Ka(1/Ms)” value read?
The value was 1.24 × 10^06 1/Ms.

For B16, which “Ka(1/Ms)” value is on record?
Its value is 1.24 × 10^06 1/Ms.

With B17 as the molecule, how does the “Ka(1/Ms)” value read?
Its value is 1.14 × 10^06 1/Ms.

For B18, which “Ka(1/Ms)” value is on record?
Its value is 1.16 × 10^06 1/Ms.

How did the “Ka(1/Ms)” value turn out when B19 was run?
Its value is 1.05 × 10^06 1/Ms.

With B20 as the molecule, how does the “Ka(1/Ms)” value read?
Its value is 1.17 × 10^06 1/Ms.

How did the “Ka(1/Ms)” value turn out when B21 was run?
Its value is 1.09 × 10^06 1/Ms.

With B22 as the molecule, how does the “Ka(1/Ms)” value read?
The value was 1.00 × 10^06 1/Ms.

How did the “Ka(1/Ms)” value turn out when B23 was run?
Its value is 1.03 × 10^06 1/Ms.

same assay, conditions: equilibrium dissociation constant, Human DR5

With B2 as the molecule, how does the Kd read?
Its Kd is 0.0127 nM.

How did the Kd turn out when B3 was run?
The Kd was 0.0277 nM.

Which Kd does the source give for B4 here?
The Kd was 0.0235 nM.

With B5 as the molecule, how does the Kd read?
The Kd was 0.0261 nM.

With B6 as the molecule, how does the Kd read?
The Kd was 0.0112 nM.

B7 was tested. Which Kd did it give?
The Kd was 0.0019 nM.

With B8 as the molecule, how does the Kd read?
Its Kd is 0.00109 nM.

How did the Kd turn out when B10 was run?
Its Kd is 0.007 nM.

With B12 as the molecule, how does the Kd read?
Its Kd is 0.0235 nM.

Which Kd does the source give for B14 here?
Its Kd is 0.00102 nM.

With B15 as the molecule, how does the Kd read?
Its Kd is 0.0788 nM.

How did the Kd turn out when B16 was run?
The Kd was 0.0706 nM.

For B17, which Kd is on record?
Its Kd is 0.0751 nM.

B18 was tested. Which Kd did it give?
The Kd was 0.00389 nM.

For B19, which Kd is on record?
Its Kd is 0.00162 nM.

Which Kd does the source give for B20 here?
Its Kd is 0.00192 nM.

With B21 as the molecule, how does the Kd read?
The Kd was 0.00101 nM.

For B22, which Kd is on record?
The Kd was 0.0942 nM.

How did the Kd turn out when B23 was run?
The Kd was 0.0774 nM.
